Laboratory results from the nanobody polyreactivity screen of Harvey et al. (2022).

Experiment: yeast display, Sf9 membrane polyspecificity reagent, FACS + sequencing; frameworks hold sequencing errors
Outline: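 Nanobodies from a synthetic yeast display library (Saccharomyces cerevisiae BJ5465), induced 36–48 hours with galactose, were stained 1 hour at 4 °C with 10% biotinylated, detergent-solubilized Sf9 membrane reagent, enriched on streptavidin microbeads, then FACS-sorted. Anti-HA (expression) and streptavidin (reagent binding) fluorescence set low and high (top ~1%) gates. Polyreactivity labels come from the gate of origin. Genes were colony-PCR amplified, MiSeq 2 × 250 sequenced and filtered by CDR length.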

| Sequence | polyreactivity (PSR sort gate) |
| --- | --- |
| QVQLVESGGGLVQAGGSLRLSCAASGLIFRGYAMGWYRQAPGKERELVAAISSIAGSTYYADSVKGRFTISRDNAKNTVYLQMNSLKPEDTAVYYCAARSRWTFRDYYYWGQGTQVTVSS | high polyreactivity |
| QVQLVESGGGLVQAGGSLRLSCAASGLIFRHYAMGWYRQAPGKERELVAAIDYSGGSTYYADSVKGRFTISRDNAKNSVYLQMNSLKPEDTAVYYCAADYFWLYYSEYGYWGQGTQVNVSS | low polyreactivity |
| QVQLVESGGGLVQAGGSLRLSCAASGLIFRHYAMGWYRQAPGKERELVAAIDYSGGSTYYADSVKGRFTISRDNAKNTVYLQMNSQKPEDTAVYYCAADYFWMYYSEYGYWGQGTQVTVSS | low polyreactivity |
| QVQLVESGGGLVQAGGSLRLSCAASGLIFRHYVMGWYRQAPGKETELVAAITSRGGTTYYADSVKGRFTISRDNAKNTVYIQMNSLKPEDTAVYYCNAVDIYPTRYEYDYWGQGTQVTVSS | high polyreactivity |
| QVQLVESGGGLVQAGGSLRLSCAASGLIFRLYAMGWYRQAPGKERELVAALSISGGSTYYADSVKGRFTLSRDNAKNTVYLQMNSLKPEDTAVYYCAARYYRGGPYYKYDYWGQGTQVTVSS | high polyreactivity |
| QVQLVESGGGLVQAGGSLRLSCAASGLIFRPYTMGWYRQAPGKERELVAAINFSGGNTYYADSVKGRFTISRDNAKNTVYLQMNSLKPEDTAVYYCATKSFYGYYYWPYGYWGQGTQVTVSS | low polyreactivity |
| QVQLVESGGGLVQAGGSLRLSCAASGLIFRRYAMGWYIQAPGKEREFVAAIRYTGGGTYYADSVKGRFTISRDNAKNTVYLQMNRLKPEDTAVYYCNTVEYRWGYISKVPKYDYWGQGTQVTLSS | high polyreactivity |
| QVQLVESGGGLVQAGGSLRLSCAASGLIFRRYAMGWYRQAPGKERELVAAITIGGSTSYADSVKGRFTISRDNAKNTVYLQMNSLKPEDTAVYYCAARWGALWYRPYDYWGQGTQVTVSS | high polyreactivity |
| QVQLVESGGGLVQAGGSLRLSCAASGLIFRTYTMGWYRQAPGKERELVATITRRCGTTYYADSVKGRFTISRDNAKNTVYLQMNSLKPEDTAVYYFAKSPYYTWKYDYWGQGTQVTVSS | high polyreactivity |
| QVQLVESGGGLVQAGGSLRLSCAASGLIFRWYAMGWYRQAPGKERELDAAISTSGGRTYYADSVKGRFTISRDNAKNTVYLQMNSLKPEDTAVYYCNAQHASWYTAYSVSFDYWGQGTQVTVSS | low polyreactivity |
| QVQLVESGGGLVQAGGSLRLSCAASGLIFRWYAMGWYRQAPGKEREMVAAITSGGTTNYADSVTGRFTISRDNAKNTVYFQMNSLKPEHSAVYSCNAIVLSYSRYDYWGQGTQVTVSS | high polyreactivity |
| QVQLVESGGGLVQAGGSLRLSCAASGLIFRYNAMGWSRQAPGKERELVAAISRSGGTTYYADSVKGRFTISRDNAKNTVYLQMNSLKPEDTAVYYCATRISQSYYNYGYWGQGTQVTVSS | high polyreactivity |
| QVQLVESGGGLVQAGGSLRLSCAASGLIFRYYAKGWYRQAPGKERELFAAISLRGGSTYYADSVKGRFTISRDNAKNNVYLQMNSLKPEDTAVYYCAAQWASFSVANLYGYWGQGTQVTVSS | high polyreactivity |
| QVQLVESGGGLVQAGGSLRLSCAASGLIFRYYAMGWYRQAPGKERELVAAITWRGGRTYYADSVKGRFTISRDNAKNTVYLQMNSLKPEDTAVYYCNKDGPYQVITYDYWGQGTQVTVSS | high polyreactivity |
| QVQLVESGGGLVQAGGSLRLSCAASGLIFRYYSMAWYRQAPGKERELVAAISKSGDRTYYADSVKGRFTISRDNAKNTVYLEMNSLKPEATGVYYCAADSYPSPNFEDNYWGQGTQVTVSS | low polyreactivity |
| QVQLVESGGGLVQAGGSLRLSCAASGLIFSAYDMGWYRQAPGKERELVASITSGGSTYYADSVKGRFTISRDNAKNTVYLQMNSLKPEDTAVYYCNADGGWYQYRWRYIEGEYWGQGTQVTLSS | low polyreactivity |
| QVQLVESGGGLVQAGGSLRLSCAASGLIFSFYALGWYRQAPGKERELVAAINRSGGSTYYADSVKGRFTISRDNSKNTVYLQMNSLKPEDTAVYYCAARNAFGTYYYWGQGTQVTVSS | high polyreactivity |
| QVQLVESGGGLVQAGGSLRLSCAASGLIFSFYDMGWYRQAPGKEREFVAAISGSGGSTYYADSVKGRFTISRDNEKNTVYLHMNILKPEDTAVYYCAAEYFTFYWKLDYWGQGTQVTVSS | high polyreactivity |
| QVQLVESGGGLVQAGGSLRLSCAASGLIFSGYAMGWYRQAPGKERELVAAISRGGGRTSYADSVKGRFTISRDNAKNTVYLQMNSLKPEDTAVYYCAKDPRYLRYEHWGQGSQVTVSS | high polyreactivity |
| QVQLVESGGGLVQAGGSLRLSCAASGLIFSGYDMGWYRQAPGKERELVAAITWSGGRTYADSVKGRFTISRDNAKNTVYLQMNSLKPEDTAVYYCNADAYIDYWPYTWDYDYWGQGTQVTVSS | high polyreactivity |
| QVQLVESGGGLVQAGGSLRLSCAASGLIFSNYAMGWYRQAPGKERELVAAITRTATTKYADSVKGRFTISRDNAKNTVYLQMNSLKPEDSAVYYCAARSYHDRYNSWTDRYGFWGQGTQVTVSS | high polyreactivity |
| QVQLVESGGGLVQAGGSLRLSCAASGLIFSPYAMGWYRQAPGKERELVAAISWRGGRTSYADSVKGRFTISRDNAKNTVYLQMNSLKPEDTAVYYCATRNSSKRRGYYYWGQGTQVTVSS | high polyreactivity |

| Sequence | polyreactivity (PSR sort gate) |
| --- | --- |
| QVQLVESGGGLVQAGGSLRLSCAASGLIFSRNAMGWYRQAPGKERELVAAISGGGGSTYYADSVKGRFTISRDNAKNNVYLQMHSLKQEATAVYDCAAKGYWWRTPWIATYDYWGQGTQVTVSS | high polyreactivity |
| QVQLVESGGGLVQAGGSLRLSCAASGLIFSRYAMGWYRQAPGKERELVAAISTRGGSTYYADSVKGRFTISRDTAKNTVYLQMNSLKPEDTAVYYCNADIYGTFRVGQGYDYWGQGTQVTVSS | high polyreactivity |
| QVQLVESGGGLVQAGGSLRLSCAASGLIFSRYAMGWYRQAPGKERELVAVISWSGGRTYYSDSVKGRFTISRDNAKNTVYLQMNSLQPEDTAVYYCAADYKSGGSRYDYWGQGTQVTVSS | high polyreactivity |
| QVQLVESGGGLVQAGGSLRLSCAASGLIFSSNAMGWYRQAPGKERELVAAISRRGGNTYYADSVKGRFTISRDNAKNTVYLQMNSLKPEDTAVYYCAARRYYVASIYRYDSWGQGTQVTVSS | high polyreactivity |
| QVQLVESGGGLVQAGGSLRLSCAASGLIFSSNAMGWYRQAPGKERELVATISWSGGSTYYADSVKGRFTISRDNAKNTVYLQMNSLKPEDTAVYYCAAVTHPAWAVEYDYWGQGTQVTVSS | high polyreactivity |
| QVQLVESGGGLVQAGGSLRLSCAASGLIFSVNAMGWYRQAPGKERELVAAITWSSGRTYYADSVKGRFTISRDNAKNSVYLQMISLKPEDTAVYYCAGVSYWYGLMYYWGQGTQVTVSS | high polyreactivity |
| QVQLVESGGGLVQAGGSLRLSCAASGLIFSYNAMGWYRQAPGTEMELVASITGGGSTYYADSVKGRFTISRDNAKNTVYFQIKSQKPEDTAVYYCAVVRLWYAQPAAGFRAGGGYWGQGTQVTLSS | low polyreactivity |
| QVQLVESGGGLVQAGGSLRLSCAASGLIFSYYAMGWYRQAPGKEMELVAAITSDDSTYYADSVKGRFTISRDNAKNTVYLQINSLKPEDTAVYYCAARYTMYDTGESSRTYTGFNYWGQGTQVTVSS | low polyreactivity |
| QVQLVESGGGLVQAGGSLRLSCAASGLIFSYYAMGWYRQAPGKERELVAAISWSGGSTYYADSVKGRFTISRDNAKNTVYLQMNSLKPEDTAVYYCAADRISADYDYWGQGTQVTVSS | low polyreactivity |
| QVQLVESGGGLVQAGGSLRLSCAASGLIFTTNAMGWYRQAPGKERELVAAISTSTGRTYYADSVKGRFTISRDNAKNTVYLQMNSLKPEDTAVYYCARGSRYVGTQRHYYKYDYWGQGTQVTVSS | high polyreactivity |
| QVQLVESGGGLVQAGGSLRLSCAASGLIFVANTMGWYRQATGKERELVAAITSDGGSTSYADSVKGRFTISRDNAKNTVYLQMNSLKPEDTAVYHCAAEYGGSSAKYGYWGQGTQVTVSS | low polyreactivity |
| QVQLVESGGGLVQAGGSLRLSCAASGLIFVGYAMGWYRQAPGKERELVAAITSGGSTKYADSVKGRFTISRDNAKNTVYLQMNSLKPEDTAVYYCAASGWRNWWSARNYYWGQGTQVTVSS | low polyreactivity |
| QVQLVESGGGLVQAGGSLRLSCAASGLIFVGYVMGWYRQAPGKERELVAAITSSSGSTYYADSVKGRFTISRDNAKNTVYLQKNSLKPEDTAVYYCAAEWGYYWYYDSEYWGQGTQVTVSS | high polyreactivity |
| QVQLVESGGGLVQAGGSLRLSCAASGLIFVINAMGWYRQAPGKERELVATISSGVSTNYADSVKGRFTISRDNAKNTVYLQMNSLKPEDTAVYYCKKGQTVSRGYRLYERYDYWGQGTQVTVSS | low polyreactivity |
| QVQLVESGGGLVQAGGSLRLSCAASGLIFWGYTMGWYRQAPGKEREFVAAISKSAGSTFYADSVKGRFTISRDNAKNTVYLQMNSLKPEDTAVYYCATGGFPGARVAYDYYYWGQGTQVTVSS | low polyreactivity |
| QVQLVESGGGLVQAGGSLRLSCAASGLIFWGYTMGWYRQAPGKERELVAAISRRGGRTYYADSVKGRFTISRDNAKNTVYLQMNSLKPEDTAVYYCNADITSSGPKSDYWGQGTQVTVSS | high polyreactivity |
| QVQLVESGGGLVQAGGSLRLSCAASGLIFWLNAMGWYRQAPGKERELVAAISWTDGTTYYADSVKGRFTISRDNAKNTVYLQMNSLIPEDTAVYYCAAEQVTIEDGVYFDFNSWGQGTQVTVSS | low polyreactivity |
| QVQLVESGGGLVQAGGSLRLSCAASGLIFWVYTMGWYRQAPGKERELVASISWNGGSTYYADSVKGRFTISRDNAKNTVYLQMNSLKPEDTAVYYCAAGARYVQRDYWGQGTQVTVSS | low polyreactivity |
| QVQLVESGGGLVQAGGSLRLSCAASGLIFWYYTMGWYRPAPGKERELVAAITIGGSTYYADSVKGRFTISRDNAKNTVYLQMNSLKPEDTAVYYCNTRRGRSQGGRYEYDYWGQGTQVTVSS | low polyreactivity |
| QVQLVESGGGLVQAGGSLRLSCAASGLIFYDNAMGWYRQAPGKERELVAAISWGGGTTYYADSVKGRFTISRDNAKNTVYLQMISLKPDDTAVYYCAAEEALFYDFYYVLLDYWGQGTQVTVSS | high polyreactivity |
| QVQLVESGGGLVQAGGSLRLSCAASGLIFYFNAMGWYRQAPGKERELVASITRTGSTNYADSVKGRFTISRDNAKNTVYLQMNSLKAEDTAVYYCAAYGPVYPHEYDYWGHGTQVTVSS | low polyreactivity |
